Where no end group is shown, it is not given here.

This is an account of results in article PMC2899887 (Biochemistry, 2010).

Test [1] has as its target EGFR 647-654 (Homo sapiens) (UniProt P00533). Briefly: NMR. The conditions noted are these: cited from earlier work.
A further test addresses T1, Nck2_70-168 (human, UniProt O43639 70-168).
T1 sequence (looked up): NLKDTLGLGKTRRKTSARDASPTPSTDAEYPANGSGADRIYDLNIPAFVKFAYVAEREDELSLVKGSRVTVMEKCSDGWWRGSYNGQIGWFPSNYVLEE
Briefly: NMR titration.

Test [2] deals with T2, isolated 2nd SH3 domain (SH3.2) of human Nck2, residues 112-168 (human, UniProt O43639 112-168).
T2 sequence (looked up): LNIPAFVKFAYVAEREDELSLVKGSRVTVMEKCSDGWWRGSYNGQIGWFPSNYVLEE
Briefly: NMR titration.

Consider Nck1 SH3.2 (from UniProt P16333), for which the Kd (usually the equilibrium constant for the complex coming apart) in test [1] is 80 µM.
With EVPVPPPVPPRR-NH2 [SOS1 peptide (1146-EVPVPPPVPPRR-1157)], in the test with Nck2_70-168, the “fold increase of Kd against the isolated SH3.2 domain” value was determined as 4.7 fold.
Take QDKPPAPPMRN-NH2 [Pak1 peptide (9-QDKPPAPPMRN-19)]: the “fold increase of Kd against the isolated SH3.2 domain” value in the test with Nck2_70-168 worked out at 4.7 fold.
In test [2], LKDTLGLGKTRRKTSARDAS-NH2 [Nck2_71-90 peptide] had a Kd of roughly 1700 µM.
